# Results taken from US20210032299A1 (Eli Lilly, published 2021).
# Starred links: 1 amine or outer side, 2 acyl side, 3 side chain; linkers in the order of their positions; H or OH if unused. Non-standard residues stand in square brackets, D forms with d. Groups on a side chain read outwards from the residue. No end group written: not given here. *: point of attachment. C20 diacid = O=C(O)CCCCCCCCCCCCCCCCCCC(=O)*; γGlu = O=C(O)[C@H](CCC(=O)[*:2])N[*:1]; 4Pal = N[C@@H](Cc1ccncc1)C(=O)O; αMeL = CC(C)C[C@](C)(N)C(=O)O; Orn = NCCC[C@H](N)C(=O)O; AEEA = NCCOCCOCC(=O)O; Aib = CC(C)(N)C(=O)O
# T1: human glucose-dependent insulinotropic polypeptide (GIP) receptor (human, UniProt P48546 22-466)
# T1 construct: whole, on cells; Assayed as crude membranes of stably transfected CHO cells; also called hGIPR; human GIP receptor
# T1 sequence (looked up): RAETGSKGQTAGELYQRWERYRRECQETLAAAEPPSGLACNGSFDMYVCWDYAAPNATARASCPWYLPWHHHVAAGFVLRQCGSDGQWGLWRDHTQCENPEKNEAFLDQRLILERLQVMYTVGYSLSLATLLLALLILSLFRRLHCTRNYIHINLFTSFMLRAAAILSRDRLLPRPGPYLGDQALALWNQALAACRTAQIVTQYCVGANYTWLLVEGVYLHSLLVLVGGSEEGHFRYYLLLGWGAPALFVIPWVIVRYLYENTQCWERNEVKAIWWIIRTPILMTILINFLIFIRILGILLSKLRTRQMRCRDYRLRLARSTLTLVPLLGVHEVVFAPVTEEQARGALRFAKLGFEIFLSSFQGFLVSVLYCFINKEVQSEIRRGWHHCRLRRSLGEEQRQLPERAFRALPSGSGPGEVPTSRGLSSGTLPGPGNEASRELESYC
# B1: Example 3 (peptide)
# peptide: Y[Aib]EGTFISDYSI[αMeL]LDKK([AEEA-AEEA-γGlu-C20 diacid])HQ[Aib]DFVE[4Pal]LLEAGPSSGAPPPS-NH2
# modifications: N-terminus assumed
# SMILES: CC[C@H](C)[C@H](NC(=O)[C@H](Cc1ccccc1)NC(=O)[C@@H](NC(=O)CNC(=O)[C@H](CCC(=O)O)NC(=O)C(C)(C)NC(=O)[C@@H](N)Cc1ccc(O)cc1)[C@@H](C)O)C(=O)N[C@@H](CO)C(=O)N[C@@H](CC(=O)O)C(=O)N[C@@H](Cc1ccc(O)cc1)C(=O)N[C@@H](CO)C(=O)N[C@H](C(=O)N[C@@](C)(CC(C)C)C(=O)N[C@@H](CC(C)C)C(=O)N[C@@H](CC(=O)O)C(=O)N[C@@H](CCCCN)C(=O)N[C@@H](CCCCNC(=O)COCCOCCNC(=O)COCCOCCNC(=O)CC[C@H](NC(=O)CCCCCCCCCCCCCCCCCCC(=O)O)C(=O)O)C(=O)N[C@@H](Cc1c[nH]cn1)C(=O)N[C@@H](CCC(N)=O)C(=O)NC(C)(C)C(=O)N[C@@H](CC(=O)O)C(=O)N[C@@H](Cc1ccccc1)C(=O)N[C@H](C(=O)N[C@@H](CCC(=O)O)C(=O)N[C@@H](Cc1ccncc1)C(=O)N[C@@H](CC(C)C)C(=O)N[C@@H](CC(C)C)C(=O)N[C@@H](CCC(=O)O)C(=O)N[C@@H](C)C(=O)NCC(=O)N1CCC[C@H]1C(=O)N[C@@H](CO)C(=O)N[C@@H](CO)C(=O)NCC(=O)N[C@@H](C)C(=O)N1CCC[C@H]1C(=O)N1CCC[C@H]1C(=O)N1CCC[C@H]1C(=O)N[C@@H](CO)C(N)=O)C(C)C)[C@@H](C)CC
# B2: Example 46 (peptide)
# peptide: Y[Aib]EGTFISDYSI[αMeL]LDKK([AEEA-AEEA-γGlu-C20 diacid])HQ[Aib]DFVE[4Pal]LLEQGPSSGAPPPS-NH2
# modifications: N-terminus assumed
# SMILES: CC[C@H](C)[C@H](NC(=O)[C@H](Cc1ccccc1)NC(=O)[C@@H](NC(=O)CNC(=O)[C@H](CCC(=O)O)NC(=O)C(C)(C)NC(=O)[C@@H](N)Cc1ccc(O)cc1)[C@@H](C)O)C(=O)N[C@@H](CO)C(=O)N[C@@H](CC(=O)O)C(=O)N[C@@H](Cc1ccc(O)cc1)C(=O)N[C@@H](CO)C(=O)N[C@H](C(=O)N[C@@](C)(CC(C)C)C(=O)N[C@@H](CC(C)C)C(=O)N[C@@H](CC(=O)O)C(=O)N[C@@H](CCCCN)C(=O)N[C@@H](CCCCNC(=O)COCCOCCNC(=O)COCCOCCNC(=O)CC[C@H](NC(=O)CCCCCCCCCCCCCCCCCCC(=O)O)C(=O)O)C(=O)N[C@@H](Cc1c[nH]cn1)C(=O)N[C@@H](CCC(N)=O)C(=O)NC(C)(C)C(=O)N[C@@H](CC(=O)O)C(=O)N[C@@H](Cc1ccccc1)C(=O)N[C@H](C(=O)N[C@@H](CCC(=O)O)C(=O)N[C@@H](Cc1ccncc1)C(=O)N[C@@H](CC(C)C)C(=O)N[C@@H](CC(C)C)C(=O)N[C@@H](CCC(=O)O)C(=O)N[C@@H](CCC(N)=O)C(=O)NCC(=O)N1CCC[C@H]1C(=O)N[C@@H](CO)C(=O)N[C@@H](CO)C(=O)NCC(=O)N[C@@H](C)C(=O)N1CCC[C@H]1C(=O)N1CCC[C@H]1C(=O)N1CCC[C@H]1C(=O)N[C@@H](CO)C(N)=O)C(C)C)[C@@H](C)CC
# B3: Example 47 (peptide)
# peptide: Y[Aib]EGTFISDYSI[αMeL]LDKK([AEEA-AEEA-γGlu-C20 diacid])HQ[Aib]DFVE[4Pal]LLEGGPSSGAPPPS-NH2
# modifications: N-terminus assumed
# SMILES: CC[C@H](C)[C@H](NC(=O)[C@H](Cc1ccccc1)NC(=O)[C@@H](NC(=O)CNC(=O)[C@H](CCC(=O)O)NC(=O)C(C)(C)NC(=O)[C@@H](N)Cc1ccc(O)cc1)[C@@H](C)O)C(=O)N[C@@H](CO)C(=O)N[C@@H](CC(=O)O)C(=O)N[C@@H](Cc1ccc(O)cc1)C(=O)N[C@@H](CO)C(=O)N[C@H](C(=O)N[C@@](C)(CC(C)C)C(=O)N[C@@H](CC(C)C)C(=O)N[C@@H](CC(=O)O)C(=O)N[C@@H](CCCCN)C(=O)N[C@@H](CCCCNC(=O)COCCOCCNC(=O)COCCOCCNC(=O)CC[C@H](NC(=O)CCCCCCCCCCCCCCCCCCC(=O)O)C(=O)O)C(=O)N[C@@H](Cc1c[nH]cn1)C(=O)N[C@@H](CCC(N)=O)C(=O)NC(C)(C)C(=O)N[C@@H](CC(=O)O)C(=O)N[C@@H](Cc1ccccc1)C(=O)N[C@H](C(=O)N[C@@H](CCC(=O)O)C(=O)N[C@@H](Cc1ccncc1)C(=O)N[C@@H](CC(C)C)C(=O)N[C@@H](CC(C)C)C(=O)N[C@@H](CCC(=O)O)C(=O)NCC(=O)NCC(=O)N1CCC[C@H]1C(=O)N[C@@H](CO)C(=O)N[C@@H](CO)C(=O)NCC(=O)N[C@@H](C)C(=O)N1CCC[C@H]1C(=O)N1CCC[C@H]1C(=O)N1CCC[C@H]1C(=O)N[C@@H](CO)C(N)=O)C(C)C)[C@@H](C)CC
# B4: Example 122 (peptide)
# peptide: Y[Aib]EGTFISDYSI[αMeL]LD[Orn]IHQ[Aib]EFVE[4Pal]K([AEEA-AEEA-γGlu-C20 diacid])LEAGPSSGAPPPS-NH2
# modifications: N-terminus assumed
# SMILES: CC[C@H](C)[C@H](NC(=O)[C@H](CCCN)NC(=O)[C@H](CC(=O)O)NC(=O)[C@H](CC(C)C)NC(=O)[C@](C)(CC(C)C)NC(=O)[C@@H](NC(=O)[C@H](CO)NC(=O)[C@H](Cc1ccc(O)cc1)NC(=O)[C@H](CC(=O)O)NC(=O)[C@H](CO)NC(=O)[C@@H](NC(=O)[C@H](Cc1ccccc1)NC(=O)[C@@H](NC(=O)CNC(=O)[C@H](CCC(=O)O)NC(=O)C(C)(C)NC(=O)[C@@H](N)Cc1ccc(O)cc1)[C@@H](C)O)[C@@H](C)CC)[C@@H](C)CC)C(=O)N[C@@H](Cc1c[nH]cn1)C(=O)N[C@@H](CCC(N)=O)C(=O)NC(C)(C)C(=O)N[C@@H](CCC(=O)O)C(=O)N[C@@H](Cc1ccccc1)C(=O)N[C@H](C(=O)N[C@@H](CCC(=O)O)C(=O)N[C@@H](Cc1ccncc1)C(=O)N[C@@H](CCCCNC(=O)COCCOCCNC(=O)COCCOCCNC(=O)CC[C@H](NC(=O)CCCCCCCCCCCCCCCCCCC(=O)O)C(=O)O)C(=O)N[C@@H](CC(C)C)C(=O)N[C@@H](CCC(=O)O)C(=O)N[C@@H](C)C(=O)NCC(=O)N1CCC[C@H]1C(=O)N[C@@H](CO)C(=O)N[C@@H](CO)C(=O)NCC(=O)N[C@@H](C)C(=O)N1CCC[C@H]1C(=O)N1CCC[C@H]1C(=O)N1CCC[C@H]1C(=O)N[C@@H](CO)C(N)=O)C(C)C
# B5: Example 1 (peptide)
# peptide: YXEGTFISDYSILLDKKAQXDFVNWLLAQGPSSGAPPPS
# modifications: D-Ala2; K17((2-[2-(2-Amino-ethoxy)-ethoxy]-acetyl)2-(γ-Glu)-CO-(CH2)18-CO2H); Aib20; C-terminal amide
# B6: Example 2 (peptide)
# peptide: YXEGTFISDYSILLDKKAQXDFVNWLLAQGPSSGAPPPS
# modifications: D-Ala2; K17((2-[2-(2-Amino-ethoxy)-ethoxy]-acetyl)2-(γ-Glu)-CO-(CH2)16-CO2H); Aib20; C-terminal amide
# B7: Example 29 (peptide)
# peptide: YXEGTFISDYSILLDKKAQXEFVEWLLAGGPSSGAPPPS
# modifications: D-Ala2; K17((2-[2-(2-Amino-ethoxy)-ethoxy]-acetyl)2-(γ-Glu)-CO-(CH2)16-CO2H); Aib20; C-terminal amide
# B8: Example 27 (peptide)
# peptide: YXEGTFISDYSILLDKKAQXEFVQWLLAGGPSSGAPPPS
# modifications: D-Ala2; K17((2-[2-(2-Amino-ethoxy)-ethoxy]-acetyl)2-(γ-Glu)-CO-(CH2)16-CO2H); Aib20; C-terminal amide
# B9: Example 17 (peptide)
# peptide: YXEGTFISDYSILLDKKAQXDFVNWLLEQGPSSGAPPPS
# modifications: D-Ala2; K17((2-[2-(2-Amino-ethoxy)-ethoxy]-acetyl)2-(γ-Glu)-CO-(CH2)16-CO2H); Aib20; C-terminal amide
# B10: Example 16 (peptide)
# peptide: YXEGTFISDYSILLDKKAQXDFVEWLLAQGPSSGAPPPS
# modifications: D-Ala2; K17((2-[2-(2-Amino-ethoxy)-ethoxy]-acetyl)2-(γ-Glu)-CO-(CH2)16-CO2H); Aib20; C-terminal amide
# B11: Example 19 (peptide)
# peptide: YXEGTFISDYSILLDKKAQXDFVNWLLAGGPSSGAPPPS
# modifications: D-Ala2; K17((2-[2-(2-Amino-ethoxy)-ethoxy]-acetyl)2-(γ-Glu)-CO-(CH2)16-CO2H); Aib20; C-terminal amide
# B12: Example 20 (peptide)
# peptide: YXEGTFISDYSILLDKKAQXEFVNWLLAQGPSSGAPPPS
# modifications: D-Ala2; K17((2-[2-(2-Amino-ethoxy)-ethoxy]-acetyl)2-(γ-Glu)-CO-(CH2)16-CO2H); Aib20; C-terminal amide
# B13: Example 28 (peptide)
# peptide: YXEGTFISDYSILLDKKAQXEFVNWLLEGGPSSGAPPPS
# modifications: D-Ala2; K17((2-[2-(2-Amino-ethoxy)-ethoxy]-acetyl)2-(γ-Glu)-CO-(CH2)16-CO2H); Aib20; C-terminal amide
# Experiments:
# human GLP-1 receptor = molecular target: T2, human GLP-1 receptor (human, UniProt P43220 24-463); test: SPA, displacement of [125I]-GLP-1 from hGLP-1R membranes, 0.1% bacitracin
# T2 construct: whole, on cells; Assayed as crude membranes of stably transfected HEK293 cells; also called hGLP1R; hGLP-1R
# How it was run: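 Binding buffer: 25 mM HEPES pH 7.4, 2.5 mM CaCl₂, 1 mM MgCl₂, 0.1% bacitracin, 0.003% Tween-20, protease inhibitors without EDTA. Four-parameter nonlinear regression; Kᵢ given as geometric mean ± SEM, n = independent replicates run on different days.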
# [1] = molecular target: T1, human glucose-dependent insulinotropic …; test: SPA, displacement of [125I]-GIP from hGIPR membranes, 0.1% bacitracin
# human glucagon receptor = molecular target: T3, human glucagon receptor (human, UniProt P47871 26-477); test: SPA, displacement of [125I]-Gcg from hGcgR membranes, 0.1% bacitracin
# T3 construct: whole, on cells; Assayed as crude membranes of stably transfected HEK293 cells; also called hGcgR; GcgR
# T3 sequence (P47871 26-477): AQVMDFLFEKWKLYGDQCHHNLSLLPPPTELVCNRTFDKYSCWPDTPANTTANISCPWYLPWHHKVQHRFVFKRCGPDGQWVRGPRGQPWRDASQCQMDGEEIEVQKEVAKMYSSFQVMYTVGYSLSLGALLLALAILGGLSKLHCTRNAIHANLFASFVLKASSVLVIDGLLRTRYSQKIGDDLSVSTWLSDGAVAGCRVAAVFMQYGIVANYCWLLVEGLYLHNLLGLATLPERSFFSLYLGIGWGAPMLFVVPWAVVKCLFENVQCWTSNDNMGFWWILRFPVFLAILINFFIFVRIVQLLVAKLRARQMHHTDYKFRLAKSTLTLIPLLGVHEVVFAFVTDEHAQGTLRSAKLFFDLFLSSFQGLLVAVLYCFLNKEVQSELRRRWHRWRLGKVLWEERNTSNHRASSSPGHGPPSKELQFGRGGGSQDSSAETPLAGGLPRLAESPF
# Method: The binding buffer contains 25 mM 4-(2-hydroxyethyl)-1-piperazineethanesulfonic acid (HEPES), pH 7.4, 2.5 mM CaCl₂), 1 mM MgCl₂, 0.1% (w/v) bacitracin (Research Products), 0.003% (w/v) Polyoxyethylenesorbitan monolaurate (TWEEN®-20), and Roche Complete™ Protease Inhibitors without EDTA. […] Plates are sealed and mixed on a plate shaker (setting 6) for 1 minute and read with a PerkinElmer Trilux MicroBeta® scintillation counter after 12 hours of incubation/settling time at room temperature.
# Data are analyzed using four-parameter (curve maximum, curve minimum, […], Hill slope) nonlinear regression routines (Genedata Screener, version 12.0.4, Genedata AG, Basal, Switzerland). […] Values for Kᵢ are reported as the geometric mean, with error expressed as the standard error of the mean (SEM) and n is equal to the number of independent replicates (determined in assays performed on different days).
Binder,Ki (human GLP-1 receptor) [nM],Ki [1] [nM],Ki (human glucagon receptor) [nM]
B1,381,0.0525,338
B2,744,0.0319,435
B3,320,0.0452,175
B4,–,0.0311,957
B5,57.8,0.0667,228
B6,77.9,0.0373,379
B7,22.7,0.0569,133
B8,23.2,0.0354,401
B9,106,0.0571,274
B10,99.2,0.0438,549
B11,15.2,0.0469,335
B12,79.8,0.0477,216
B13,6.46,0.0732,86.8
